In US20220267377A1:
Non-standard residues stand in square brackets, D forms with d. Primed or numbered codes have the meaning given here. No end group written: not given here. *: point of attachment. PEG8′ = polyethylene glycol linker with an average of 8 ethylene glycol units; fluorPhe = fluorinated phenylalanine; Palmitoyl = CCCCCCCCCCCCCCCC(=O)*; Tic = O=C(O)[C@@H]1Cc2ccccc2CN1; Aad = N[C@@H](CCCC(=O)O)C(=O)O; Nle = CCCC[C@H](N)C(=O)O; Nva = CCC[C@H](N)C(=O)O

T1: human Chemokine-like receptor 1, CMKLR1 (ProLink (PK) tagged GPCR in PathHunter β-Arrestin cells) (human) (UniProt Q99788)
T1 sequence: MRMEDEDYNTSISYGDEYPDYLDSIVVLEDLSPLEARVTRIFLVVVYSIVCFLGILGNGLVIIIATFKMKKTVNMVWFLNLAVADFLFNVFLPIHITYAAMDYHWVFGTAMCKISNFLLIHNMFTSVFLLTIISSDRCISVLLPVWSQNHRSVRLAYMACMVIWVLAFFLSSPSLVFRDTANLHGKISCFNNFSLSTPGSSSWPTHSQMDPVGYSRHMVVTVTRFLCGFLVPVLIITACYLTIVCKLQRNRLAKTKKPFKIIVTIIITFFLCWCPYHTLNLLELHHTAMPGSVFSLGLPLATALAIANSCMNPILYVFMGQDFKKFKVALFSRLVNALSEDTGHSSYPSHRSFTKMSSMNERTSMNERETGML


Target: T1, human Chemokine-like receptor 1, CMKLR1 (ProLink (PK) tagged GPCR in PathHunter β-Arrestin cells) (human)

| Binder | EC50, PathHunter β-Arrestin recruitment assay, agonist format [nM] |
| --- | --- |
| {Palmitoyl-PEG8′}-GG[dY]FLP[dS]QF[dA][Tic]S [OK-101] | 2.6 |
| {Palmitoyl-PEG8′}-[dA]G[dY]F[Nle]P[dS][Aad]F[dA][Tic][dA] [OK-111] | 15 |
| {Palmitoyl-PEG8′}-[dA]G[dY]F[Nle]P[dS]Q[fluorPhe][dA][Tic][dA] (also: fluorPhe9: fluorine position not given here) [OK-112] | 1.4 |
| {Palmitoyl-PEG8′}-[Nva]G[dY]F[Nle]P[dS]QF[dA][Tic][dA] [OK-113] | < 0.5 |
| {Palmitoyl-PEG8′}-AG[dY]F[Nle]P[dS]QFA[Tic][dS] [OK-114] | < 0.5 |
| {Palmitoyl-PEG8′}-AGFF[Nle]PSQFA[Tic][dA] [OK-115] | 12.4 |
| {Palmitoyl-PEG8′}-GGFF[Nle]PSQFA[Tic][dS] [OK-116] | 63.9 |
| {Palmitoyl-PEG8′}-[dA]G[dY]F[Nle]P[dS]QF[dA][Tic][dA] [OK-102] | 2.3 |
| {Palmitoyl-PEG8′}-AAYF[Nle]PSQFA[Tic][dA] [OK-103] | 43 |
| {Palmitoyl-PEG8′}-AAFY[Nle]PSQYA[Tic][dA] [OK-104] | 2.6 |
| {Palmitoyl-PEG8′}-AGYF[Nle]PTNFA[Tic][dA] [OK-105] | 203 |
| {Palmitoyl-PEG8′}-AAFY[Nle]PTQFA[Tic][dA] [OK-106] | 32.5 |
| {Palmitoyl-PEG8′}-AAYF[Nle]PSQY[dA]F[dA] [OK-107] | 1710 |
| {Palmitoyl-PEG8′}-AG[dY]F[Nle]P[dS][Aad]FA[Tic][dA] [OK-109] | < 0.5 |
